Reference: publication PMC9482650, “Quantitative fragmentomics allow affinity mapping of interactomes” (Nature Communications, 2022)

T1: RAPGEF6, Q8TEU7
T1 sequence (Q8TEU7 525-625, limits assumed, looked up): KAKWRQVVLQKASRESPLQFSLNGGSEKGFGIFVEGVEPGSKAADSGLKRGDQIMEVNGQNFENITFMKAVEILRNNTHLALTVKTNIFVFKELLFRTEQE

T2: TIAM2, Q8IVF5
T2 sequence (Q8IVF5 885-986, limits assumed, looked up): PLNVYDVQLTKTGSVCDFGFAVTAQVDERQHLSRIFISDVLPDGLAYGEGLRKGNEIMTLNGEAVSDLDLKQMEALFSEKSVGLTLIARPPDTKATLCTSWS

T3: LNX2_3, Q8N448
T3 sequence (Q8N448 463-564, limits assumed, looked up): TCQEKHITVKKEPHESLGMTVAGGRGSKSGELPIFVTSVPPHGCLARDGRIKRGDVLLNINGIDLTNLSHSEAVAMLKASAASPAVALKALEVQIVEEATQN

T4: PDZD2_2, O15018
T4 sequence (O15018 329-429, limits assumed, looked up): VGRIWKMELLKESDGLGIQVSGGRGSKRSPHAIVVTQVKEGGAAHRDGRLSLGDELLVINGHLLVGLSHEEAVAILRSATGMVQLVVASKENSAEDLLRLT

T5: APBA1_1, Q02410
T5 sequence (Q02410 651-752, limits assumed, looked up): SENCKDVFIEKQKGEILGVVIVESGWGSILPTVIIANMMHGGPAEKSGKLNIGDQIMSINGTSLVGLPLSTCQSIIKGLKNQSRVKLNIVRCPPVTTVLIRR

T6: MPDZ_12, O75970
T6 sequence (O75970 1857-1958, limits assumed, looked up): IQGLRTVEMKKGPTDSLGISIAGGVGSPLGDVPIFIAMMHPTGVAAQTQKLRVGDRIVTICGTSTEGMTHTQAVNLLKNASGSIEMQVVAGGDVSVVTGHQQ

T7: RHPN1, Q8TCX5
T7 sequence (Q8TCX5 508-602, limits assumed, looked up): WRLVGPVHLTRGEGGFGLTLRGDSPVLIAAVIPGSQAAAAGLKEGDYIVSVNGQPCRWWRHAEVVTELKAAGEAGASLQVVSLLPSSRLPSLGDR

T8: GRIP1_2, Q9Y3R0
T8 sequence (Q9Y3R0 145-248, limits assumed, looked up): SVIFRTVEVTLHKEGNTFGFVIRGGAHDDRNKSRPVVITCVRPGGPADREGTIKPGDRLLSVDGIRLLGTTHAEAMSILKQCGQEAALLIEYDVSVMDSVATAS

T9: PTPN13_1, Q12923
T9 sequence (Q12923 1088-1188, limits assumed, looked up): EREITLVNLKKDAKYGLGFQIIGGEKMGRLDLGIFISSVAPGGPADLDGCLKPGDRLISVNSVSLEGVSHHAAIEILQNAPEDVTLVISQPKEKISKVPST

T10: MPDZ_5, O75970
T10 sequence (O75970 695-796, limits assumed, looked up): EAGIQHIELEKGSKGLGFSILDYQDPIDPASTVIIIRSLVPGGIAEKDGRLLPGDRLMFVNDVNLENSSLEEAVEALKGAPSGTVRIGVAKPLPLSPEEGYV


Tests used:
Assay in all cases: holdup assay
Parameters in all cases: key: below the threshold = too weak to quantify, mostly under pKd 3.1 to 4
Details in all cases: plain residues with an end cap or a label only (N-terminal biotin on a linker: ado-ado)
[1] = molecular target: T1, RAPGEF6, Q8TEU7
[2] = molecular target: T2, TIAM2, Q8IVF5
[3] = molecular target: NHERF4_1, Q86UT5-2
NHERF4_1, Q86UT5-2, sequence (Q86UT5 other isoform, or with tags, fused parts or gaps): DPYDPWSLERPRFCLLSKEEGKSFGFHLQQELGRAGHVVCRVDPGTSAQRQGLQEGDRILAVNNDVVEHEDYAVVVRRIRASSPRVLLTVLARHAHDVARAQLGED

[4] = molecular target: T3, LNX2_3, Q8N448
[5] = molecular target: SNX27, Q96L92
[6] = molecular target: DLG2_3, Q15700
[7] = molecular target: T4, PDZD2_2, O15018
[8] = molecular target: HTRA2, O43464
HTRA2, O43464, sequence (O43464 355-458): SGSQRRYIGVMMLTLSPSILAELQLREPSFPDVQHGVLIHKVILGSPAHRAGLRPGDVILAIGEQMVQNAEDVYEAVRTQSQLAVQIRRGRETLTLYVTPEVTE

[9] = molecular target: MAGI2_2, Q86UL8
MAGI2_2, Q86UL8, sequence (Q86UL8 410-522): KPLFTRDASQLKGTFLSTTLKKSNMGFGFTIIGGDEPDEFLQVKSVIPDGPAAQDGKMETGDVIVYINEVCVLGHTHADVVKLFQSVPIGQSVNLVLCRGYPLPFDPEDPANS

[10] = molecular target: T5, APBA1_1, Q02410
[11] = molecular target: DLG1_1, Q12959
[12] = molecular target: T6, MPDZ_12, O75970
[13] = molecular target: DLG4_1, P78352
DLG4_1, P78352, sequence (P78352 62-152): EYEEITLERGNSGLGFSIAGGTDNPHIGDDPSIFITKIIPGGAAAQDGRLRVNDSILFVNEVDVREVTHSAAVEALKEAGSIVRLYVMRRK

[14] = molecular target: DLG4_3, P78352
DLG4_3, P78352, sequence (P78352 306-403): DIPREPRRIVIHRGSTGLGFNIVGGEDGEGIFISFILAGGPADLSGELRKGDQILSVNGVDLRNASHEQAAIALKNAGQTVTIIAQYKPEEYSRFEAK

[15] = molecular target: T7, RHPN1, Q8TCX5
[16] = molecular target: GRIP2_3, Q9C0E4
GRIP2_3, Q9C0E4, sequence (Q9C0E4 238-339): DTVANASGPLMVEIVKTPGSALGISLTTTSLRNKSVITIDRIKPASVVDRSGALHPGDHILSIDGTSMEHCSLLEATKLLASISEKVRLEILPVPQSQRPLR

[17] = molecular target: NOS1, P29475
NOS1, P29475, sequence (P29475 9-101): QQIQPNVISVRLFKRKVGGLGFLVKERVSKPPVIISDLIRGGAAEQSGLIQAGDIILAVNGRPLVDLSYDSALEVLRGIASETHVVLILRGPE

[18] = molecular target: T8, GRIP1_2, Q9Y3R0
[19] = molecular target: FRMPD3, Q5JV73
FRMPD3, Q5JV73, sequence (Q5JV73 12-100): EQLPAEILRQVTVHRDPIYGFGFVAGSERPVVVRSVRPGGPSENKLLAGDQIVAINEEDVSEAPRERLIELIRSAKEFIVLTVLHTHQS

[20] = molecular target: MAST2, Q6P0Q8
MAST2, Q6P0Q8, sequence (Q6P0Q8 1099-1202): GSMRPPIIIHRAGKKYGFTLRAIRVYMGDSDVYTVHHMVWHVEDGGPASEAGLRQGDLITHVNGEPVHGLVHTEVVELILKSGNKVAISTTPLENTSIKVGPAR

[21] = molecular target: Inadl_1, Q8NI35
Inadl_1, Q8NI35, sequence (Q8NI35 113-229): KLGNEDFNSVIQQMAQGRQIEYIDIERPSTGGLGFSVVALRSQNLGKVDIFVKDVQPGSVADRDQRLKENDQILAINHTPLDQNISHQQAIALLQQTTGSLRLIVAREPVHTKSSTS

[22] = molecular target: PARD3_3, Q8TEW0
PARD3_3, Q8TEW0, sequence (Q8TEW0 582-685): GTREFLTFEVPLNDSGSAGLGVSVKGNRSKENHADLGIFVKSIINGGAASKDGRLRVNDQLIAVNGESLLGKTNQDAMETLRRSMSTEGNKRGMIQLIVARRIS

[23] = molecular target: GRIP2_7, Q9C0E4
GRIP2_7, Q9C0E4, sequence (Q9C0E4 934-1023): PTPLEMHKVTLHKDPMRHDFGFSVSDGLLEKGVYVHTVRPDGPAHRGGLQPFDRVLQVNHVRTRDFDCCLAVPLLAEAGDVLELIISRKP

[24] = molecular target: T9, PTPN13_1, Q12923
[25] = molecular target: FRMPD2_1, Q68DX3
FRMPD2_1, Q68DX3, sequence (Q68DX3 770-861): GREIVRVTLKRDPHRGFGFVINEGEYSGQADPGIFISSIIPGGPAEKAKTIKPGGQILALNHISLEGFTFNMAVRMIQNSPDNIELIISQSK

[26] = molecular target: T10, MPDZ_5, O75970
[27] = molecular target: LAP2, Q96RT1
LAP2, Q96RT1, sequence (Q96RT1 other isoform, or with tags, fused parts or gaps): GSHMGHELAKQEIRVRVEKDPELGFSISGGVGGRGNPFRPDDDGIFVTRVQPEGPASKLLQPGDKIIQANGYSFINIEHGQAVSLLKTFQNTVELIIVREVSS

[28] = molecular target: LNX1_2, Q8TBB1
LNX1_2, Q8TBB1, sequence (Q8TBB1 371-470): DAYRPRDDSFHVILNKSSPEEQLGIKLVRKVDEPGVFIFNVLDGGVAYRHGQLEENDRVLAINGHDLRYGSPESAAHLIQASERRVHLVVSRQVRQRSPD

| pKd [1] | pKd [2] | pKd [3] | pKd [4] | pKd [5] | pKd [6] | pKd [7] | pKd [8] | pKd [9] | pKd [10] | pKd [11] | pKd [12] | pKd [13] | pKd [14] | pKd [15] | pKd [16] | pKd [17] | pKd [18] | pKd [19] | pKd [20] | Binder | other results |
| --- | --- | --- | --- | --- | --- | --- | --- | --- | --- | --- | --- | --- | --- | --- | --- | --- | --- | --- | --- | --- | --- |
| below the threshold | below the threshold | 4.08 | below the threshold | below the threshold | below the threshold | below the threshold | below the threshold | below the threshold | below the threshold | below the threshold | below the threshold | below the threshold | below the threshold | below the threshold | below the threshold | 3.68 | below the threshold | below the threshold | 4.95 | FVFESRKEIL [TBPL1, P62380] | pKd [21]: below the threshold; pKd [22]: below the threshold; pKd [23]: below the threshold; pKd [24]: below the threshold; pKd [25]: below the threshold; pKd [26]: below the threshold; pKd [27]: below the threshold; pKd [28]: below the threshold |
| below the threshold | 4.04 | below the threshold | below the threshold | below the threshold | 3.64 | below the threshold | below the threshold | below the threshold | below the threshold | below the threshold | 3.73 | below the threshold | below the threshold | below the threshold | below the threshold | below the threshold | below the threshold | 4.02 | 4.17 | KPDKQEEFYA [SDC3, O75056] | pKd [21]: below the threshold; pKd [22]: below the threshold; pKd [23]: below the threshold; pKd [24]: below the threshold; pKd [25]: below the threshold; pKd [26]: below the threshold; pKd [27]: below the threshold; pKd [28]: below the threshold |

The remaining lines, values behind:

| Binder | pKd [1] | pKd [2] | pKd [3] | pKd [4] | pKd [5] | pKd [6] | pKd [7] | pKd [8] | pKd [9] | pKd [10] | pKd [11] | pKd [12] | pKd [13] | pKd [14] | pKd [15] | pKd [16] | pKd [17] | pKd [18] | pKd [19] | pKd [20] | other results |
| --- | --- | --- | --- | --- | --- | --- | --- | --- | --- | --- | --- | --- | --- | --- | --- | --- | --- | --- | --- | --- | --- |
| DSEEELPTRL [GRK6, P43250] | below the threshold | below the threshold | 4.22 | below the threshold | 3.85 | below the threshold | 3.71 | below the threshold | 3.54 | below the threshold | below the threshold | 3.47 | below the threshold | below the threshold | 3.55 | below the threshold | 3.61 | below the threshold | below the threshold | 4.83 | pKd [21]: below the threshold; pKd [22]: 4.09; pKd [23]: below the threshold; pKd [24]: below the threshold; pKd [25]: below the threshold; pKd [26]: below the threshold; pKd [27]: below the threshold; pKd [28]: below the threshold |
| PLATCDETSI [SEMA4F, O95754] | below the threshold | 4.08 | below the threshold | below the threshold | 5.26 | 3.9 | 4.47 | below the threshold | below the threshold | below the threshold | 3.59 | below the threshold | below the threshold | below the threshold | 4.93 | below the threshold | below the threshold | below the threshold | below the threshold | 5.42 | pKd [21]: below the threshold; pKd [22]: 3.9; pKd [23]: below the threshold; pKd [24]: below the threshold; pKd [25]: below the threshold; pKd [26]: below the threshold; pKd [27]: below the threshold; pKd [28]: below the threshold |
| RDYTQSSSSL [GRM5, P41594] | below the threshold | 3.8 | 4.13 | below the threshold | 4.25 | below the threshold | 3.83 | below the threshold | below the threshold | below the threshold | below the threshold | below the threshold | below the threshold | below the threshold | 3.51 | below the threshold | below the threshold | below the threshold | below the threshold | 5.15 | pKd [21]: below the threshold; pKd [22]: below the threshold; pKd [23]: below the threshold; pKd [24]: below the threshold; pKd [25]: below the threshold; pKd [26]: below the threshold; pKd [27]: below the threshold; pKd [28]: below the threshold |
